Experiments:
[1] = biological target: T1, AncMsPFK/GK (synthetic construct, UniProt Z9Y5W3ZEF0); test: X-ray crystal structure, […] Å; assay type: binding; details: Mg2+ in active site; Ni2+ at three surface sites; crystals pH 4.5
T1 construct: heat step 80 C, Ni-Sepharose
T1 sequence (Z9Y5W3ZEF0 22-511): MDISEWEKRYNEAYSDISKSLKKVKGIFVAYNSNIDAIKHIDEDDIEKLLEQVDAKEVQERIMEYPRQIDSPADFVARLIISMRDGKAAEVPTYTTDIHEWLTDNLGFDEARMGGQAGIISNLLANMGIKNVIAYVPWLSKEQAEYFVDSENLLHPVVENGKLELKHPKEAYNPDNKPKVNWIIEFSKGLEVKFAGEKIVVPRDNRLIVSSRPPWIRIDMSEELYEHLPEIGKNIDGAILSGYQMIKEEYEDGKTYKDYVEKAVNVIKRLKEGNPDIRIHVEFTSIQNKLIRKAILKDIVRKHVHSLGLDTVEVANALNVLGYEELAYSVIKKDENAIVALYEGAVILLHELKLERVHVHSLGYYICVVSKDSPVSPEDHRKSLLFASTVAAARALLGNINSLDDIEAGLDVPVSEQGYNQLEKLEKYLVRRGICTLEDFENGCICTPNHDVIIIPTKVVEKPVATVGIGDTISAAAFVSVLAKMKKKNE

[2] = substrate: Nc1ncnc2c1ncn2[C@@H]1O[C@H](COP(=O)(O)OP(=O)(O)O)[C@@H](O)[C@H]1O; test: purified protein; assay type: biochemical, Methanosarcina mazei; details: PFK activity, saturating fructose-6P, 25 mM PIPES pH 6.5, 40 C, as Mg-ADP

Molecule | X-ray crystal structure, 2.86 Å [1] | Km [2] | kcat [2] | kcat/Km [2]
Nc1ncnc2c1ncn2[C@@H]1O[C@H](COP(=O)(O)OP(=O)(O)O)[C@@H](O)[C@H]1O [ADP] | crystals for the ancMsPFK/GK in complex with ADP, which was solved by molecular replacement | – | – | –
MmazPFK/GK (Methanosarcina mazei Go1) (protein, de novo codon-optimized gene in pET-15b, N-terminal poly-His tag, E. coli C41; heat step 50 C, Ni-NTA, HiTrap-Q) MDMEEWEQRHNEAFYDAKEALPYLDGMFVAYNSNIDAIRHLDEEALTKLIGFFDEAEIQERVAVYPREIADPLDFIARLLIAMREGKAAEVPTYTEEIHTWLKEHLGFDYARMGGQAGIISNLLARLDLKKVVAYIPWLSAEQAEYFEDNGNILHPKVENGEVVLKTPAEAFNPGMGSKVNWIFEFSKDLKVSCAGSTFKVPRDNRLIISSRPKWIRLDMDRAIYDQLETIFPVDGAMLSGYQMIKEEYEDGSTYKDYVEHSVEVINKLKSLNPDLRIHVELTSIQNRVIRKAILTEIVARHVHSLGLDTVEVANALNVLGYEELSYSVIRKGENGIMSLYQGAVQLMKDLKLERVHVHSLGFYICILAKGHPLTLKEHRDALLFSSVLAASRALHGKIEDLNEAETGLDVPVSAQGLEDLETFKLYCTGRKLCSPDEFEYGYIYGSDHDAILIPSKVVDRPKATVGIGDTISAGAFAAMLARMKQIKSGK | – | 72 ± 9 µM | 6.1 ± 0.3 s⁻¹ | 84500 M⁻¹ s⁻¹

Reference: article PMC6028617, “ADP-Dependent Kinases From the Archaeal Order Methanosarcinales Adapt to Salt by a Non-canonical Evolutionarily Conserved Strategy” (Frontiers in Microbiology, 2018)
